Data on 3 substances can be found in publication PMC6695518.

Series [1] concerns the target recombinant His-tagged P34 (Trypanosoma brucei). Put plainly: co-IP; recombinant immune capture as above, with in vitro-transcribed 5S rRNA added before the proteins at an equal molar ratio; Western blot. In general terms: Immunoblotting shows a protein as a band on a membrane.
The target of series [2] is recombinant His-tagged L5 (Trypanosoma brucei). The series is described as above.
The target in series [3] is ribosomal protein L5, endogenous (Trypanosoma brucei brucei strain 427 (endogenous in procyclic cells)). Put plainly: co-IP; in vivo immune capture as above, with RNase A (50 ug) added to the whole-cell extract; Western blot for TbMex67; input set at 1.0.
Series [4] addresses P34/P37, endogenous. Described as above.
Series [5] deals with ribosomal protein L5, endogenous (Trypanosoma brucei brucei strain 427 (endogenous in procyclic cells)). Description: co-IP; in vivo immune capture: 100 ug procyclic whole-cell extract with anti-P34/P37 or anti-L5 cross-linked protein A Dynabeads, PBS with 10 mg/ml BSA, 1 h at 4°C, without RNase A; Western blot for TbMex67; input set at 1.0.
In series [6] the target is P34/P37, endogenous. Described as above.
Series [7] deals with TbMex67;TbMtr2 (Trypanosoma brucei;Trypanosoma brucei). Description: filter binding. The note with it: TbMex67 and TbMtr2 preincubated together; Kd in total TbMex67; 10 mM Tris-HCl pH 7.4, 100 mM NaCl, 1 mM EDTA, 100 ug/ml BSA, 0.05 nM RNA, 0-200 nM protein, 30 min, room temperature; RNA preheated 55 C 10 min then ice.
Series [8] has as its system TbMex67 (Trypanosoma brucei). Put plainly: filter binding. To be noted: TbMex67 alone; 10 mM Tris-HCl pH 7.4, 100 mM NaCl, 1 mM EDTA, 100 ug/ml BSA, 0.05 nM RNA, 0-200 nM protein, 30 min, room temperature; RNA preheated 55 C 10 min then ice.

Turning to “recombinant His-tagged TbMex67 (natural protein)”, the ratio of TbMex67 in the pellet with 5S rRNA to without in series [1] and in series [2] was 0.94 in each case.

In series [3], “Trypanosoma brucei Mex67 (TbMex67), endogenous (natural protein)” displayed an amount of TbMex67 in the pellet, with RNase A (relative to input set at 1.0) of 0.8. The substance further returned a relative amount of TbMex67 in the pellet, with RNase A (relative to input set at 1.0) in series [4] of 0.53. In addition, in series [5], the fraction of the total amount of TbMex67 associated with L5 (relative to input set at 1.0) was determined as 0.43. For the same substance, the relative total amount of TbMex67 in the pellet fraction (relative to input set at 1.0) in series [6] is 0.35.

The Kd is the constant that tells how readily two partners part at equilibrium. High values mean weaker binding, low ones tighter binding. Turning to 5S rRNA, the figures for the Kd in series [7] and in series [8] were 10 nM and 41 nM, respectively.
